Residue numbers refer to the chain shown, from its start.
Legend:
[1] = target: T1, hu CD28-Fc (Fc-knob-avi and Fc-hole chains), biotinylated (human, biotin on the avi tag); assay: SPR, bacterial supernatant
T1 construct: also called CD28-Fc-avi

[2] = target: T2, murine FAP avi his, biotinylated (murine, UniProt P97321 27-761, biotin on the avi-tag); assay: SPR, bacterial supernatant;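 also: SPR at 25 °C with biotinylated human or murine FAP captured via neutravidin, aVH-containing bacterial supernatants diluted 1:3 as analyte, 600 s dissociation, blank supernatant without aVH as reference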
T2 construct: also called muFAP; mu FAP

[3] = target: T3, full-length human CEA with N-terminal SNAP tag on transfected HEK293 cells (human, UniProt P06731 35-685, SNAP tag labelled with terbium); assay: FRET (TagLite) on hu CEA-SNAP cells
T3 construct: whole, on cells; also called hu CEA-SNAP; CEACAM5
T3 sequence (looked up): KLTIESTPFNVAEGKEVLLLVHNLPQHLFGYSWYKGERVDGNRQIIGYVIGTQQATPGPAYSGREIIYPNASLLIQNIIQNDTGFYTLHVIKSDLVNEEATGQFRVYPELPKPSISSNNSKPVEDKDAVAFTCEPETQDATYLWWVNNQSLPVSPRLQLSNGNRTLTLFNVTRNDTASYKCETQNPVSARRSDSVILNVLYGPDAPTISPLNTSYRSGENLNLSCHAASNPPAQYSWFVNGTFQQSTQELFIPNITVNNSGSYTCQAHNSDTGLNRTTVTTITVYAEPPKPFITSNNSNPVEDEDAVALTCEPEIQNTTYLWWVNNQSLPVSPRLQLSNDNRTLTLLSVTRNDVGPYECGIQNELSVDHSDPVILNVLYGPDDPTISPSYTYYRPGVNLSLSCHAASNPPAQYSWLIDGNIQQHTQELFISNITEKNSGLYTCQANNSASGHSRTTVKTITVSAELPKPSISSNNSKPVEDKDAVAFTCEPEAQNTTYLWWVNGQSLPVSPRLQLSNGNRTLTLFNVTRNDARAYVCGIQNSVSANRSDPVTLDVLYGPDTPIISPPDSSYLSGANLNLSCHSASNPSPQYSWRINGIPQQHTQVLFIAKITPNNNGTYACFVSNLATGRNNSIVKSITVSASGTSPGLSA

[4] = target: T4, human FAP avi his, biotinylated (human, UniProt Q12884 27-759, biotin on the avi-tag); assay: SPR, bacterial supernatant;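 also: SPR at 25 °C with biotinylated human or murine FAP captured via neutravidin, aVH-containing bacterial supernatants diluted 1:3 as analyte, 600 s dissociation, blank supernatant without aVH as reference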
T4 construct: also called huFAP

B1: anti-CD28 aVH P023.017 (VHH)
VHH: EVQLVESGGGLVQPGGSLRLSCAASGFNIKDTCIGWVRRAPGKEEELVARICGEYGSTRYADSVKGRFTISADTSKNTAYLQMNSLRAEDTAVYYCAAQPRYYDVYDYWGQGTTVTVSS
koff [1]: 0.0175 s⁻¹

B2: anti-CD28 aVH P023.057 (VHH)
VHH: B1 VHH with R50E, E54R, Q99E, P100H, Y103P, D104G, V105Q, D107T
koff [1]: 0.0777 s⁻¹

B3: anti-FAP aVH P012.090 (VHH)
VHH: EVQLVESGGGLVQPGGSLRLSCAASSFNIKDTYIGWVRRAPGKEEELVAKIFRCSDGRTRYADSVKGRFTISCDTSKNTAYLQMNSLRAEDTAVYYCANIYKTHYTYWGQGTTVTVSS
binding result [2]: no binding

B4: anti-CEA aVH P118.061 (VHH)
VHH: EVQLVESGGGLVQPGGSLRLSCAASGFNIKDTCIGWVRRAPGKEEELVANICPYHGYTRYADSVKGRFTISADTSKNTAYLQMNSLRAEDTAVYYCAIVSYVDEYYNYWGQGTTVTVSS
Kd [3]: 14.7 nM

B5: anti-CEA aVH P127.002 (VHH)
VHH: B4 VHH with N50S, P53K, H55T, Y57K, S100A, Y101S, V102G, E104G, Y105W
Kd [3]: 399 nM

B6: anti-CEA aVH P127.014 (VHH)
VHH: B4 VHH with N50A, P53T, H55K, Y57T, V99Y, Y101H, V102Y, D103Y, E104D
Kd [3]: 9.1 nM

B7: anti-CEA aVH P124.021 (VHH)
VHH: B4 VHH with N50A, H55K, I98N, S100A, V102S, D103G, E104G, Y105H
Kd [3]: 12.3 nM

B8: anti-CEA aVH P124.034 (VHH)
VHH: B4 VHH with N50A, H55I, Y57E, I98T, S100A, Y101R, V102K, D103Y, E104N, Y105Q
Kd [3]: 65.4 nM

B9: anti-CD28 aVH P020.010 (VHH)
VHH: EVQLVESGGGLVQPGGSLRLSCAASGFNIKDTCIGWVRRAPGKEEELVAYICEGNGYTRYADSVKGRFTISADTSKNTAYLQMNSLRAEDTAVYYCAAEGKETYYYQYWGQGTTVTVSS
koff [1]: 0.00068 s⁻¹

B10: anti-CD28 aVH P020.035 (VHH)
VHH: EVQLVESGGGLVQPGGSLRLSCAASGFNIKDTCIGWVRRAPGKEEELVADICGDDGHTRYADSVKGRFTISADTSKNTAYLQMNSLRAEDTAVYYCAYYSGSYYEYWGQGTTVTVSS
koff [1]: 0.00134 s⁻¹

B11: anti-FAP aVH P014.087 (VHH)
VHH: EVQLVESGGGLVQPGGSLRLSCAASGFNIKDTCIGWVRRAPGKEEELVANICGHIGSTRYADSVKGRFTISADTSKNTAYLQMNSLRAEDTAVYYCANSYTYSYKYWGQGTTVTVSS
binding result [2]: no binding

B12: anti-CD28 aVH P020.077 (VHH)
VHH: EVQLVESGGGLVQPGGSLRLSCAASGFNIKDTCIGWVRRAPGKEEELVAGICQHYGDTRYADSVKGRFTISADTSKNTAYLQMNSLRAEDTAVYYCATDDWIYPGYIYWGQGTTVTVSS
koff [1]: 0.0117 s⁻¹

B13: anti-CD28 aVH P023.001 (VHH)
VHH: EVQLVESGGGLVQPGGSLRLSCAASGFNIKDTCIGWVRRAPGKEEELVAYICPSHGYTRYADSVKGRFTISADTSKNTAYLQMNSLRAEDTAVYYCADHKNTQWGYAYWGQGTTVTVSS
koff [1]: 0.0321 s⁻¹

B14: anti-CD28 aVH P023.039 (VHH)
VHH: EVQLVESGGGLVQPGGSLRLSCAASGFNIKDTCIGWVRRAPGKEEELVADICIKHGYTRYADSVKGRFTISADTSKNTAYLQMNSLRAEDTAVYYCADWTQSGYHYGYWGQGTTVTVSS
koff [1]: 0.0176 s⁻¹

B15: anti-FAP aVH P034.066 (VHH)
VHH: EVQLVESGGGLVQPGGSLRLSCAASGFNIKDTCIGWVRRAPGKEEELVANICGITGYTRYADSVKGRFTISADTSKNTAYLQMNSLRAEDTAVYYCAKSGGPKGYTYWGQGTTVTVSS
koff [2]: 0.00253 s⁻¹ | koff [4]: 0.000215 s⁻¹

B16: anti-FAP aVH P034.001 (VHH)
VHH: B15 VHH with I54S, T55I, Y57A, P102H, T106R
koff [2]: 0.0176 s⁻¹ | binding result [4]: no binding

B17: anti-FAP aVH P058.068 (VHH)
VHH: B15 VHH with G53Q, I54T, T55H, K98Y, S99K, P102G, K103R, G104Y, T106D
binding result [2]: no binding | koff [4]: 0.00316 s⁻¹

B18: anti-FAP aVH P031.033 (VHH)
VHH: B15 VHH with I54Q, T55Y, Y57Q, P102R, K103H, T106E
koff [2]: 0.0106 s⁻¹ | binding result [4]: no binding

B19: anti-FAP aVH P011.080 (VHH)
VHH: B15 VHH with G53Q, I54S, T55G, K98R, S99Y, G100H, G101K, P102G, K103V, T106Q
binding result [2]: no binding

B20: anti-FAP aVH P034.007 (VHH)
VHH: B15 VHH with I54G, T55D, Y57H, K98T, G100Y, G101T, P102V, K103Y, G104R, T106Y
koff [2]: 0.0106 s⁻¹ | koff [4]: 0.00385 s⁻¹

B21: anti-FAP aVH P011.064 (VHH)
VHH: EVQLVESGGGLVQPGGSLRLSCAASGFNIKDTCIGWVRRAPGKEEELVANICITDGKTRYADSVKGRFTISADTSKNTAYLQMNSLRAEDTAVYYCAYYSKYIGYRYWGQGTTVTVSS
binding result [2]: no binding

B22: anti-CD28 aVH P020.057 (VHH)
VHH: EVQLVESGGGLVQPGGSLRLSCAASGFNIKDTCIGWVRRAPGKEEELVAAICYTQGDTRYADSVKGRFTISADTSKNTAYLQMNSLRAEDTAVYYCAASQYDSYYTYWGQGTTVTVSS
koff [1]: 0.0174 s⁻¹

B23: anti-CD28 aVH P020.051 (VHH)
VHH: B22 VHH with Y53K, S99A, Q100N, Y104P
koff [1]: 0.0135 s⁻¹

B24: anti-CD28 aVH P020.017 (VHH)
VHH: B22 VHH with Y53P, T54D, Q55E, S99A, Q100K, S103D, Y104R, T106N
koff [1]: 0.0109 s⁻¹

B25: anti-CD28 aVH P020.029 (VHH)
VHH: B22 VHH with A50G, Y53E, T54A, Q55G, A98E, Y101Q, D102G, T106S
koff [1]: 0.00151 s⁻¹

B26: anti-CD28 aVH P020.027 (VHH)
VHH: B22 VHH with A50G, Y53R, T54D, Q55G, Q100D, T106A
koff [1]: 0.00145 s⁻¹

B27: anti-CD28 aVH P020.042 (VHH)
VHH: B22 VHH with Y53R, T54E, Q55A, S99A, Q100D, Y104T, T106I
koff [1]: 0.0144 s⁻¹

B28: anti-CD28 aVH P020.037 (VHH)
VHH: B22 VHH with Y53D, T54S, Q55G, Q100D, D102N, Y104H, T106S
koff [1]: 0.0131 s⁻¹

B29: anti-CD28 aVH P020.023 (VHH)
VHH: B22 VHH with V37A, Y53D, T54Y, Q55N, D57H, A98Q, Q100D, Y104K, T106S
koff [1]: 0.0033 s⁻¹

B30: anti-CD28 aVH P020.034 (VHH)
VHH: B22 VHH with Y53H, T54H, Q55G, A98E, Y101V, T106S
koff [1]: 0.00216 s⁻¹

B31: anti-CD28 aVH P020.065 (VHH)
VHH: B22 VHH with A50G, Q55Y, A98S, Q100E, Y101V, T106S
koff [1]: 0.00885 s⁻¹

B32: anti-CD28 aVH P020.063 (VHH)
VHH: B22 VHH with Y53P, T54E, Q55Y, A98S, Q100D, Y104A, T106S
koff [1]: 0.018 s⁻¹

B33: anti-FAP aVH P032.056 (VHH)
VHH: EVQLVESGGGLVQPGGSLRLSCAASSFNIKDTYIGWVRRAPGKEEELVANIHCRSGYTRYADSVKGRFTISCDTSKNTAYLQMNSLRAEDTAVYYCAHSGSRYIYKYWGQGTTVTVSS
koff [2]: 0.0222 s⁻¹ | binding result [4]: no binding

B34: anti-CD28 aVH P019.020 (VHH)
VHH: EVQLVESGGGLVQPGGSLRLSCAASGFNIKDSSTYIGWVRRAPGKEEELVAYIYCTQGETRYADSVKGRFTISCDTSKNTAYLQMNSLRAEDTAVYYCASWGGNYPYYYWGQGTTVTVSS
koff [1]: 0.0206 s⁻¹

B35: anti-FAP aVH P054.035 (VHH)
VHH: EVQLVESGGGLVQPGGSLRLSCAASGFNIKDTCIGWVRRAPGKEEELVANICGSYGHTRYADSVKGRFTISADTSKNTAYLQMNSLRAEDTAVYYCASSYTVYRSYAYWGQGTTVTVSS
koff [2]: 0.0151 s⁻¹ | koff [4]: 0.0141 s⁻¹

B36: anti-FAP aVH P048.019 (VHH)
VHH: B35 VHH with G53P, S54K, Y55H, H57A, S98Y, Y100G, T101N, R104N, S105R, A107K
koff [2]: 0.0171 s⁻¹ | koff [4]: 0.00547 s⁻¹
